Results from patent US11332546B2, “Protease inhibitory antibodies and methods of use thereof” (The Regents of The University of California, priority 2019, dated 2022).

Tests used:
cdMMP-12 wt [1] = biological target: T1, cdMMP-12 wt (Homo sapiens, UniProt P39900); assay: Proteolytic stability of Fabs with cdMMP-12 wt; format: physicochemical; details: 2 μM Fab, 2 μM cdMMP-12 wt, 4 h, 37° C.
T1 construct: hexahistidine (C); made in house; host or cells: E. coli BL21 (pET32b, cytoplasmic)
Method: (§1) Proteolytic stability tests 2 μM purified Fabs were incubated with 2 μM cdMMP-12 wt/D4 in 50 mM HEPES, 150 mM NaCl pH 7.5 at 37° C. for 4 h. Samples were analyzed by using 12% non-reducing SDS-PAGE and stained with Coomassie blue. Densitometric interpretation was conducted using a ChemiDoc imager (Bio-Rad).

cdMMP-12 mutant D4 [2] = biological target: T2, cdMMP-12 mutant D4 (Homo sapiens, UniProt P39900, A167E/A173P/A252Q/H206S/I245T/K233R/M156E/N119Q/N126H/R135E/T215V/V161I/Y113D/Y132K); assay: Proteolytic stability of Fabs with cdMMP-12 D4; format: physicochemical; details: 2 μM Fab, 2 μM cdMMP-12 D4, 4 h, 37° C.
T2 construct: hexahistidine (C); made in house; host or cells: E. coli BL21, pET32b (cytoplasmic, soluble fraction)
Method: as §1

cdMMP-12 wt [3] = biological target: T1, cdMMP-12 wt; assay: FRET peptide inhibition assay, cdMMP-12 wt; format: biochemical; details: toward cdMMP-12 wild type; listed as LG4
Method: (§2) FRET peptide inhibition assays In 96-well assay plates (Corning), 60/250/350/10/10/30 nM of (cd)MMP-1/-7/-9/-12 D4/-12 wt/-14 were preincubated with 1 nM-1 μM purified Fabs for 30 min at room temperature then 1 μM substrate M-2350 (Bachem) was added. Generated fluorescent signals (λEx=328 nm, λEm=393 nm) were monitored at 37° C. to measure the initial velocities. To calculate inhibition constants (KIs), data were fit with the equations for slow tight-binding inhibitors. The inhibition type of the Fabs was determined using the initial velocities of cdMMP-12 D4 as a function of substrate concentration (250-2000 nM) at various Fab concentrations (31-500 nM). The values of Vmax and Km were derived from linearization in accordance with the Lineweaver-Burk equation.

cdMMP-14 [4] = biological target: T3, cdMMP-14 (Homo sapiens, UniProt P50281); assay: Bio-layer interferometry on cdMMP-14; format: binding; set-up: human MMP-14 (residue 114-320); hexahistidine (C); made in house; host or cells: E. coli periplasm; details: listed as LG4; read-out: KD toward cdMMP-14
cdMMP-12 wt [5] = biological target: T1, cdMMP-12 wt; assay: Fibronectin proteolysis inhibition, cdMMP-12 wt (western blot); format: biochemical
Method: Inhibition tests with macromolecular substrates 10 μg/mL FITC-conjugated elastin (AnaSpec) was incubated with 7 nM cdMMP-12 D4/wt and 2-2000 nM purified Fab in 50 mM Tris-HCl, 150 mM NaCl, 5 mM CaCl2), 100 μM ZnCl2 pH 7.5. Generated fluorescent signals were measured at 12 h with λEx of 490 nm and λEm of 520 nm. […] The samples were separated on 5% non-reducing SDS-PAGE and analyzed by western blotting with anti-Fibronectin antibody (Abcam) and chemiluminescent substrate (Thermo Scientific). […] Assays without cdMMP-12s or Fabs were performed as controls.

cdMMP-12 wt [6] = biological target: T1, cdMMP-12 wt; assay: Inhibition of proteolysis of modified TEM-1 ([…]) by cdMMP-12 wt; format: biochemical; details: 10 μM Fab, 700 nM cdMMP-12 wt, 250 nM modified TEM-1, 4 h
Method: Inhibition tests with macromolecular substrates 10 μg/mL FITC-conjugated elastin (AnaSpec) was incubated with 7 nM cdMMP-12 D4/wt and 2-2000 nM purified Fab in 50 mM Tris-HCl, 150 mM NaCl, 5 mM CaCl2), 100 μM ZnCl2 pH 7.5. Generated fluorescent signals were measured at 12 h with λEx of 490 nm and λEm of 520 nm. For inhibition assays on fibronectin, 200 nM fibronectin (Corning) was incubated with 200-350 nM cdMMP-12 wt and 2 μM GM6001 or 0.1-6 μM Fabs in 50 mM HEPES, 150 mM NaCl pH 7.5 at 37° C. for 2-4 h. The samples were separated on 5% non-reducing SDS-PAGE and analyzed by western blotting with anti-Fibronectin antibody (Abcam) and chemiluminescent substrate (Thermo Scientific). For inhibition assays on modified TEM-1 carrying cleavable sequence ([…] (SEQ ID NO:134)) and a N-terminal HA tag, 250 nM modified TEM-1 was incubated with 700 nM cdMMP-12 wt and 10 μM Fabs in 50 mM HEPES, 150 mM NaCl pH 7.5 at 37° C. for 4 h. The samples were separated on 12% non-reducing SDS-PAGE, and the modified TEM-1 was visualized by western blotting using anti-HA antibody (Invitrogen) and chemiluminescent substrate. Assays without cdMMP-12s or Fabs were performed as controls.

cdMMP-9 [7] = assay: Bio-layer interferometry on cdMMP-9; format: binding; details: listed as LG4; read-out: KD toward cdMMP-9
Target sequence in this assay (P14780 with tags, fused parts or gaps DEL216-390 limits assumed): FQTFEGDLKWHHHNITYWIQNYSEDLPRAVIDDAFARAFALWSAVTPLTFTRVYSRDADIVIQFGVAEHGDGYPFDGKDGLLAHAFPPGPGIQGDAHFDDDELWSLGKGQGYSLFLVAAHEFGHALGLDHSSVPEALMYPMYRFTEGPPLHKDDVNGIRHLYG

cdMMP-12 mutant D4 [8] = biological target: T2, cdMMP-12 mutant D4; assay: FRET peptide inhibition assay, cdMMP-12 D4; format: biochemical; details: cdMMP-12 D4, FRET peptide, 31-500 nM Fab
Method: as §2

cdMMP-14 [9] = biological target: T3, cdMMP-14; assay: In vitro proteolytic stability of Fab with its target protease (cdMMP-14); format: physicochemical; set-up: human MMP-14 (residue 114-320); hexahistidine (C); made in house; host or cells: E. coli (periplasm); details: 1 μM Fab with 1 μM protease, 37° C., 24 hours, SDS-PAGE
cdMMP-9 [10] = assay: FRET inhibition selectivity test, cdMMP-9 (Example 1); format: biochemical; details: Fab at 500 nM
Method: (§3) For inhibition tests, 1 μM Fabs were 2-fold serially diluted into protease specific assay buffer and incubated with 1-10 nM proteases for 30 min at room temperature. […] Inhibition percentages at given concentrations were calculated by comparing the initial reaction rates in the presence or absence of inhibitor. IC50 was determined as the concentration that achieved 50% inhibition, and KI values were calculated using KI=IC50/(S/Km+1). Vmax and Km at various Fab concentrations were measured to determine the inhibition type. FRET inhibition assays were also used for selectivity tests of isolated Fabs with the relevant proteases.

BACE2 = biological target: T4, BACE2 (Homo sapiens, UniProt Q9Y5Z0); assay: FRET inhibition selectivity test, BACE2; format: biochemical; details: IgG
T4 sequence (Q9Y5Z0 63-518): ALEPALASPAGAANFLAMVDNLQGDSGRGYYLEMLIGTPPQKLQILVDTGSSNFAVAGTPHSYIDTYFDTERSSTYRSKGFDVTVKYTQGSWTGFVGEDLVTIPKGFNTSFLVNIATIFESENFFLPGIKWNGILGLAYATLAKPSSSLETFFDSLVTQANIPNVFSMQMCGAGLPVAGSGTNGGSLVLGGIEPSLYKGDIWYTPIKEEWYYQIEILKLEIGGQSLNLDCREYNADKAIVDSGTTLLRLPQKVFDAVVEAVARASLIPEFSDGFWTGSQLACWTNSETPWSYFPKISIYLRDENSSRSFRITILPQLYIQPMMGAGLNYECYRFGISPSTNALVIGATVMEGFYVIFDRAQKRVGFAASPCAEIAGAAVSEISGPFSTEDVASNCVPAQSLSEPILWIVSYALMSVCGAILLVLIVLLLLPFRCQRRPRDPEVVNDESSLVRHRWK
Method: as §3

BACE1 [11] = biological target: T5, BACE1 (Homo sapiens, UniProt P56817); assay: Amyloid precursor protein (MBP-APP571-696) degradation by BACE1; format: biochemical; details: 1 μM IgG, 1 μM BACE1, 5 μM MBP-APP, 37° C., 24 h; 86% without IgG
T5 construct: human β-secretase 1 (BACE1, residue 46-457); made in house; host or cells: HEK293F (secreted, protein A purified)
Method: For amyloid precursor protein (APP) degradation studies, APP571-696 was cloned to the C-terminal of maltose binding protein (MBP) for E. coli expression and purified using amylose resin (NEB). 5 μM purified MBP-APP was incubated with 1 μM BACE1-Fc in the absence or presence of 1 μM IgG in BACE1 assay buffer at 37° C. for 24 h. In addition, APP571-696 was cloned to a pcDNA plasmid carrying a SPE leader for secretion expression. Transfected HEK293F cells were cultured in Expi293 media for 72 hrs with the presence of 14-800 nM purified IgG. The supernatants were clarified by centrifugation and 0.45 μm filtration, and produced Aβ1-40 was quantified by ELISA (Abcam).

BACE1 [12] = biological target: T5, BACE1; assay: FRET peptide inhibition assay, BACE1 (M-2420); format: biochemical; details: IgG format; BACE-1, FRET peptide
Method: as §3

T1 sequence (P39900 106-263): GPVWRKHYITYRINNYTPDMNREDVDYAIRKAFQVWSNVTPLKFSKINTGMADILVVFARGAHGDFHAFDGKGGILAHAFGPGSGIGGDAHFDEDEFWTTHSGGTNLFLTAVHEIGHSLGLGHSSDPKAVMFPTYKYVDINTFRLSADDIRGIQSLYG
T5 sequence (P56817 46-457): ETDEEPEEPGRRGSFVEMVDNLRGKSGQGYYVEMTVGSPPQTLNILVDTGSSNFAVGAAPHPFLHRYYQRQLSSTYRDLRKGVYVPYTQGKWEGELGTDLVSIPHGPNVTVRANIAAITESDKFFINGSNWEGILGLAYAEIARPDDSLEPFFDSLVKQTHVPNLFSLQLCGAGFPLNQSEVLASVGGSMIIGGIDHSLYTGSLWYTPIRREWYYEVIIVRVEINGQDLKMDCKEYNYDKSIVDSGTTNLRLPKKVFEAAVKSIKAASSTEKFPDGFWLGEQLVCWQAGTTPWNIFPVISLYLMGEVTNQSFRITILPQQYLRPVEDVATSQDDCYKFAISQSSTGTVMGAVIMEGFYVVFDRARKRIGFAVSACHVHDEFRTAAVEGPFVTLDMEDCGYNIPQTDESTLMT
T2 sequence (P39900 106-263 Y113D/N119Q/N126H/Y132K/R135E/M156E/V161I/A167E/A173P/H206S/T215V/K233R/I245T/A252Q): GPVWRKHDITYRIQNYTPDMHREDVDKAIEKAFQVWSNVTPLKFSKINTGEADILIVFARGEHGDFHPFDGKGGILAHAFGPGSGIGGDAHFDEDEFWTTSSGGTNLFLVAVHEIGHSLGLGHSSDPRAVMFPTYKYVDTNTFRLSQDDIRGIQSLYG

B1: Fab LG4: anti-MMP-12 antibody clone; VL SEQ ID NO:112, VH SEQ ID NO:114, CDR-H3 SEQ ID NO:117 (antibody, V domains shown)
VH: EVQLVESGGGLVQPGGSLRLSCAASGFNLYYSYMHWVRQAPGKGLEWVASISSYYGYTSYADSVKGRFTISADTSKNTAYLQMNSLRAEDTAVYYCARSPIVYYELFMFIDMGAQGWKYGMDYWGQGTLVTVSSAS
VL: DIQMTQSPSSLSASVGDRVTITCRASQSVSSAVAWYQQKPGKAPKLLIYSASSLYSGVPSRFSGSRSGTDFTLTISSLQPEDFATYYCQQTFYPFTFGQGTKVEIKR
For B1, the “Fab remained intact after exposure to cdMMP-12 wt” value (cdMMP-12 wt [1]) was 54%, the “Degradation of Fab by cdMMP-12 D4” value (cdMMP-12 mutant D4 [2]) was “no significant degradation” and the “Inhibition FRET peptide” value (cdMMP-12 wt [3]) was “non-”. The Kd (cdMMP-14 [4]) was about 700 nM, the “Fibronectin remaining after cdMMP-12 wt hydrolysis” value (cdMMP-12 wt [5]; 6 μM Fab, 350 nM wt cdMMP-12, 200 nM fibronectin, 37° C.) was “significant amounts of fibronectin remained” and the “Inhibition Fibronectin IC50” value (cdMMP-12 wt [5]; toward cdMMP-12 wild type, 200 nM enzyme, 200 nM fibronectin) was “Inhib”. For the same molecule, the “Inhibition of modified TEM-1 (PLGLEEAK) proteolysis” value (cdMMP-12 wt [6]) was “significant inhibition”, the Kd (cdMMP-9 [7]) was 720 nM and the “Type of inhibition (Lineweaver-Burk)” value (cdMMP-12 mutant D4 [8]) was “substrate competitive manner”.

B2: Fab 2B4: anti-MMP-14 antibody clone; VL SEQ ID NO:88, VH SEQ ID NO:1, CDR-H3 SEQ ID NO:4 (antibody, V domains shown)
VH: EVQLVESGGGLVQPGGSLRLSCAASGFNLYSSYIHWVRQAPGKGLEWVASIYSSYSSTYYADSVKGRFTISADTSKNTAYLQMNSLRAEDTAVYYCARSDSAVYSVRRMGSSGLAAYAMDYWGQGTLVTVSSAS
VL: DIQMTQSPSSLSASVGDRVTITCRASQSVSSAVAWYQQKPGKAPKLLIYSASSLYSGVPSRFSGSRSGTDFTLTISSLQPEDFATYYCQQYSYGYSSLITFGQGTKVEIKR
With B2 the “Fab remained intact after exposure to protease” value (cdMMP-14 [9]) was 76% and the “Inhibition of cdMMP-9 (selectivity)” value (cdMMP-9 [10]) was “did not inhibit”.

B3: IgG B1A4: anti-BACE1 inhibitory Fab B1A4 converted into IgG format (antibody, V domains shown)
VH: EVQLVESGGGLVQPGGSLRLSCAASGFNISYSSIHWVRQAPGKGLEWVAYISPSSSYTSYADSVKGRFTISADTSKNTAYLQMNSLRAEDTAVYYCARHYYVSVGSGIDYWGQGTLVTVSSAS
VL: DIQMTQSPSSLSASVGDRVTITCRASQSVSSAVAWYQQKPGKAPKLLIYSASSLYSGVPSRFSGSRSGTDFTPTISSLQPEDFATYYCQQASASPYALITFGQGTKVEIKR
With B3 the “Inhibition of BACE2 (selectivity)” value (BACE2) was “but not BACE2”, the “Cleavage of APP571-696 by BACE1 in presence of IgG” value (BACE1 [11]) was 37% and the “Inhibition Potency KI (associated IgG, in parentheses)” value (BACE1 [12]) was 35 nM.
